In paper PMC7567689, “High-level expression of aryl-alcohol oxidase 2 from Pleurotus eryngii in Pichia pastoris for production of fragrances and bioactive precursors” (Applied Microbiology and Biotechnology, 2020):

Legend:
PeAAO2 [1] = biological target: T1, PeAAO2 (Pleurotus eryngii, UniProt D3YBH4); assay: direct UV assay of cuminaldehyde formation at […] nm, Michaelis-Menten fit; type: biochemical; conditions: 100 mM sodium phosphate pH 6.0, 25 °C; O2 as co-substrate; glycosylated enzyme; read-out: PeAAO2 from P. eryngii expressed in P. pastoris^a
T1 construct: no tag mentioned

PeAAO2 [2] = biological target: T1, PeAAO2; assay: direct UV assay of veratraldehyde formation at […] nm, Michaelis-Menten fit; type: biochemical; conditions: 100 mM sodium phosphate pH 6.0, 25 °C; O2 as co-substrate; glycosylated enzyme; read-out: PeAAO2 from P. eryngii expressed in P. pastoris^a
OC/C=C/c1ccccc1 = system: T2, OC/C=C/c1ccccc1; assay: purified protein; type: biochemical, Pleurotus eryngii; conditions: 100 mM sodium phosphate pH 6.0, 25 °C, O2 as co-substrate, glycosylated enzyme, substrate in DMSO
T2 construct: no tag mentioned

OCc1ccccc1 = system: T3, OCc1ccccc1; assay: purified protein; type: biochemical, Pleurotus eryngii; conditions: 100 mM sodium phosphate pH 6.0, 25 °C, O2 as co-substrate, glycosylated enzyme
T3 construct: no tag mentioned

C/C=C/C=C/CO = system: T4, C/C=C/C=C/CO; assay: purified protein; type: biochemical, Pleurotus eryngii; conditions: 100 mM sodium phosphate pH 6.0, 25 °C, O2 as co-substrate, glycosylated enzyme
T4 construct: no tag mentioned

OCc1ccc2c(c1)OCO2 = system: T5, OCc1ccc2c(c1)OCO2; assay: purified protein; type: biochemical, Pleurotus eryngii; conditions: 100 mM sodium phosphate pH 6.0, 25 °C, O2 as co-substrate, glycosylated enzyme
T5 construct: no tag mentioned

T1 sequence (D3YBH4 28-593 limits assumed): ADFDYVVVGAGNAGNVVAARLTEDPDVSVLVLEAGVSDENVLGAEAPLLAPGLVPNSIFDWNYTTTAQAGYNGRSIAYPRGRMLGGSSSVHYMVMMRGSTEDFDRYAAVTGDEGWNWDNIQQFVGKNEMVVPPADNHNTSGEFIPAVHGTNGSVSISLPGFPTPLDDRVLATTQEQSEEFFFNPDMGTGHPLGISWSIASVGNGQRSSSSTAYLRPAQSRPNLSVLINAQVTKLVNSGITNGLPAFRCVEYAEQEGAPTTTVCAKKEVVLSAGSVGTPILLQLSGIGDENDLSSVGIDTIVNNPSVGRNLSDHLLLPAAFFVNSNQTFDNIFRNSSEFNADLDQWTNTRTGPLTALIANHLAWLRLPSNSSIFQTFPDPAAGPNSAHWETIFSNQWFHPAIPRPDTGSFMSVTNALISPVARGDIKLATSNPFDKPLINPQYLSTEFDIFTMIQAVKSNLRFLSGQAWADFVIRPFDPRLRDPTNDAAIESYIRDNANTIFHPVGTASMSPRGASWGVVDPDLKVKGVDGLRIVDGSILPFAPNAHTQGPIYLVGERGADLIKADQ

CC(C)c1ccc(CO)cc1 [Cumic alcohol]
Km (PeAAO2 [1]): 1910 ± 42.4 µM

COc1ccc(CO)cc1OC [Veratryl alcohol]
Km (PeAAO2 [2]): 447 ± 7.5 µM

PeAAO2 (Pleurotus eryngii)
Km (OC/C=C/c1ccccc1): 2740 ± 103 µM | kcat (OC/C=C/c1ccccc1): 125.5 ± 0.1 s⁻¹ | kcat/Km (OC/C=C/c1ccccc1): 45800 M⁻¹ s⁻¹ | Km (OCc1ccccc1): 599.6 ± 18.7 µM | kcat (OCc1ccccc1): 12.8 ± 0.01 s⁻¹ | kcat/Km (OCc1ccccc1): 21400 M⁻¹ s⁻¹ | Km (C/C=C/C=C/CO): 143.6 ± 11.5 µM | kcat (C/C=C/C=C/CO): 68.8 ± 0.05 s⁻¹ | kcat/Km (C/C=C/C=C/CO): 479000 M⁻¹ s⁻¹ | Km (OCc1ccc2c(c1)OCO2): 59.1 ± 3.0 µM | kcat (OCc1ccc2c(c1)OCO2): 35.5 ± 0.02 s⁻¹ | kcat/Km (OCc1ccc2c(c1)OCO2): 600000 M⁻¹ s⁻¹
